The values below come from paper PMC3727927 (Molecular Biology of the Cell, 2013).

This data set concerns the molecule itself. Kind of data set: light scattering.

B1: Bacillus subtilis MreB A277Q K305D double mutant, Strep-tagged (natural protein)
chain: MFGIGARDLGIDLGTANTLVFVKGKGIVVREPSVVALQTDTKSIVAVGNDAKNMIGRTPGNVVALRPMKDGVIADYETTATMMKYYINQAIKNKGMFARKPYVMVCVPSGITAVEERAVIDATRQAGARDAYPIEEPFAAAIGANLPVWEPTGSMVVDIGGGTTEVAIISLGGIVTSQSIRVAGDEMDDAIINYIRKTYNLMIGDRTAEAIKMEIGSAEAPEESDNMEIRGRDLLTGLPKTIEITGKEISNALRDTVSTIVEAVKSTLEKTPPELAQDIMDRGIVLTGGGALLRNLDKVISEETDMPVLIAEDPLDCVAIGTGKALEHIHLFKGKTR
For the protein B1, the binding result is “binds”.
